Results as given in publication PMC5438047 (Nature chemical biology, 2017).

What was measured:
[1] = target: T1, human O-GlcNAc hydrolase (hOGA) (Homo sapiens, UniProt O60502, DEL397-534); experiment: X-ray crystal structure; format: biochemical; settings: cited from earlier work
T1 sequence (O60502 11-396): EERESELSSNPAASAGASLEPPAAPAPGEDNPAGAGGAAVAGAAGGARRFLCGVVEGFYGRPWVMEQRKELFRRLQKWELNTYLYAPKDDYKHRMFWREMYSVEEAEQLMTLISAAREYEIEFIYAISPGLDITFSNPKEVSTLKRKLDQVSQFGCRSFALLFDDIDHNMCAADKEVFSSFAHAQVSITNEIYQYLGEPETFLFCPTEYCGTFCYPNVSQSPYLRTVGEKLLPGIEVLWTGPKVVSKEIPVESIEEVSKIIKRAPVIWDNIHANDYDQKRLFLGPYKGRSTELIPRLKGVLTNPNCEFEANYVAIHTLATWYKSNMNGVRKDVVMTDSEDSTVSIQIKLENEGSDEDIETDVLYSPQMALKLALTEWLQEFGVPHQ
T1 sequence (O60502 535-715): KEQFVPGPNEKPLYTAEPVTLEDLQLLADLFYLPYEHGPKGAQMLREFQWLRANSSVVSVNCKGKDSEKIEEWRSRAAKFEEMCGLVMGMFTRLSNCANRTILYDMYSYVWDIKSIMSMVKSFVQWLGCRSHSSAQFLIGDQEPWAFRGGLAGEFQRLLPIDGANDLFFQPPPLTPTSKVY

[2] = test system: CC(=O)N[C@H]1[C@H](Oc2ccc([N+](=O)[O-])cc2)O[C@H](CO)[C@@H](O)[C@@H]1O; experiment: purified protein
[3] = target: the molecule itself; experiment: SEC-MALS

Molecule	stoichiometry N [3]	other results
PUGNAc-imidazole		Ki [1]: 3.9 µM
human O-GlcNAc hydrolase (hOGA) (Homo sapiens; DEL397-534)		Km [2]: 40.93 µM
hOGA Split1 (co-expressed fragments 11-396 and 535-715) (complex, human) chain 1: EERESELSSNPAASAGASLEPPAAPAPGEDNPAGAGGAAVAGAAGGARRFLCGVVEGFYGRPWVMEQRKELFRRLQKWELNTYLYAPKDDYKHRMFWREMYSVEEAEQLMTLISAAREYEIEFIYAISPGLDITFSNPKEVSTLKRKLDQVSQFGCRSFALLFDDIDHNMCAADKEVFSSFAHAQVSITNEIYQYLGEPETFLFCPTEYCGTFCYPNVSQSPYLRTVGEKLLPGIEVLWTGPKVVSKEIPVESIEEVSKIIKRAPVIWDNIHANDYDQKRLFLGPYKGRSTELIPRLKGVLTNPNCEFEANYVAIHTLATWYKSNMNGVRKDVVMTDSEDSTVSIQIKLENEGSDEDIETDVLYSPQMALKLALTEWLQEFGVPHQ chain 2: KEQFVPGPNEKPLYTAEPVTLEDLQLLADLFYLPYEHGPKGAQMLREFQWLRANSSVVSVNCKGKDSEKIEEWRSRAAKFEEMCGLVMGMFTRLSNCANRTILYDMYSYVWDIKSIMSMVKSFVQWLGCRSHSSAQFLIGDQEPWAFRGGLAGEFQRLLPIDGANDLFFQPPPLTPTSKVY	2	
near full-length hOGA (His(6)9-916) (enzyme, human, UniProt O60502 9-916, looked up) TLEERESELSSNPAASAGASLEPPAAPAPGEDNPAGAGGAAVAGAAGGARRFLCGVVEGFYGRPWVMEQRKELFRRLQKWELNTYLYAPKDDYKHRMFWREMYSVEEAEQLMTLISAAREYEIEFIYAISPGLDITFSNPKEVSTLKRKLDQVSQFGCRSFALLFDDIDHNMCAADKEVFSSFAHAQVSITNEIYQYLGEPETFLFCPTEYCGTFCYPNVSQSPYLRTVGEKLLPGIEVLWTGPKVVSKEIPVESIEEVSKIIKRAPVIWDNIHANDYDQKRLFLGPYKGRSTELIPRLKGVLTNPNCEFEANYVAIHTLATWYKSNMNGVRKDVVMTDSEDSTVSIQIKLENEGSDEDIETDVLYSPQMALKLALTEWLQEFGVPHQYSSRQVAHSGAKASVVDGTPLVAAPSLNATTVVTTVYQEPIMSQGAALSGEPTTLTKEEEKKQPDEEPMDMVVEKQEETDHKNDNQILSEIVEAKMAEELKPMDTDKESIAESKSPEMSMQEDCISDIAPMQTDEQTNKEQFVPGPNEKPLYTAEPVTLEDLQLLADLFYLPYEHGPKGAQMLREFQWLRANSSVVSVNCKGKDSEKIEEWRSRAAKFEEMCGLVMGMFTRLSNCANRTILYDMYSYVWDIKSIMSMVKSFVQWLGCRSHSSAQFLIGDQEPWAFRGGLAGEFQRLLPIDGANDLFFQPPPLTPTSKVYTIRPYFPKDEASVYKICREMYDDGVGLPFQSQPDLIGDKLVGGLLSLSLDYCFVLEDEDGICGYALGTVDVTPFIKKCKISWIPFMQEKYTKPNGDKELSEAEKIMLSFHEEQEVLPETFLANFPSLIKMDIHKKVTDPSVAKSMMACLLSSLKANGSRGAFCEVRPDDKRILEFYSKLGCFEIAKMEGFPKDVVILGRSL	2	
